Literature values in patent publication US20260345619A1 (Principia Biopharma Inc., priority 2023, published 2026).

Conditions: for efficacy: severe asthma, eosinophilic phenotype

B1: mepolizumab: anti-interleukin (IL)-5 agent (antibody, chains of the INN, looked up, V domains shown)
VH: QVTLRESGPALVKPTQTLTLTCTVSGFSLTSYSVHWVRQPPGKGLEWLGVIWASGGTDYNSALMSRLSISKDTSRNQVVLTMTNMDPVDTATYYCARDPPSSLLRLDYWGRGTPVTVSS
VL: DIVMTQSPDSLAVSLGERATINCKSSQSLLNSGNQKNYLAWYQQKPGQPPKLLIYGASTRESGVPDRFSGSGSGTDFTLTISSLQAEDVAVYYCQNVHSFPFTFGGGTKLEIK
patients with no decrease in oral corticosteroid (OCS) dose or lack of asthma control (high eosinophilic group (Bel E H et al., 2014)): 36% | efficacy: have shown efficacy

B2: reslizumab: anti-interleukin (IL)-5 agent (antibody, chains of the INN, looked up, V domains shown)
VH: EVQLVESGGGLVQPGGSLRLSCAVSGLSLTSNSVNWIRQAPGKGLEWVGLIWSNGDTDYNSAIKSRFTISRDTSKSTVYLQMNSLRAEDTAVYYCAREYYGYFDYWGQGTLVTVSS
VL: DIQMTQSPSSLSASVGDRVTITCLASEGISSYLAWYQQKPGKAPKLLIYGANSLQTGVPSRFSGSGSATDYTLTISSLQPEDFATYYCQQSYKFPNTFGQGTKVEVK
efficacy: have shown efficacy
